From PMC3526290

How the values were obtained:
[1] = target: Asf1 labeled with Alexa Fluor 532 (*Asf1), full-length (budding yeast) (UniProt P32447); assay: native gel or EMSA; labelled protein (*Asf1, 0.5 µM in Figure 1b, or H3/H4*) with Cac2 or CAF-1 titrated or at 20 µM; 10 mM Tris, 1 mM DTT, pH 8.0, 30 min on ice; 0.2x TBE 59:1 native gel on ice; fraction bound from band densities
[2] = target: Asf1 labeled with Alexa Fluor 532 (*Asf1), full-length (budding yeast) (UniProt P32447); assay: fluorescence polarisation; fluorescence anisotropy; 10 nM *Asf1 (alone or pre-bound to 20 nM H3/H4) or 100 nM *Asf1^1-169, Cac2 or CAF-1 titrated; 20 mM HEPES, 150 mM NaCl, pH 7.4, 20°C
[3] = target: Cac2 B domain (Saccharomyces cerevisiae) (UniProt Q04199); conditions: cited from earlier work
UniProt Q04199, sequence (Q04199 449-468): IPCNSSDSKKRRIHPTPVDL

Kd [1] | Kd [2] | Substance | Kd [3]
280 nM | 380 nM | Chromatin Assembly Factor 1 (CAF-1) complex: Cac1, Cac2, Cac3 (from UniProt Q12495 1-606; Q04199 1-468; P13712 1-422) | 
 |  | Asf1 (from UniProt P32447) | 1500 nM
